Data reported in patent US20260374828 (published 2026).
Where no end group is shown, it is not given here. [ ]: non-standard residue; d: D form.

B1: Peptide 1-12 (peptide)
chain: Ac-DELEPLTGF[dR][dR]RR-NH2
SMILES: CC(=O)N[C@@H](CC(=O)O)C(=O)N[C@@H](CCC(=O)O)C(=O)N[C@@H](CC(C)C)C(=O)N[C@@H](CCC(=O)O)C(=O)N1CCC[C@H]1C(=O)N[C@@H](CC(C)C)C(=O)N[C@H](C(=O)NCC(=O)N[C@@H](Cc1ccccc1)C(=O)N[C@H](CCCNC(=N)N)C(=O)N[C@H](CCCNC(=N)N)C(=O)N[C@@H](CCCNC(=N)N)C(=O)N[C@@H](CCCNC(=N)N)C(N)=O)[C@@H](C)O
B2: Peptide 1-13 (peptide)
chain: Ac-DELEPLTGFRR[dR][dR]-NH2
SMILES: CC(=O)N[C@@H](CC(=O)O)C(=O)N[C@@H](CCC(=O)O)C(=O)N[C@@H](CC(C)C)C(=O)N[C@@H](CCC(=O)O)C(=O)N1CCC[C@H]1C(=O)N[C@@H](CC(C)C)C(=O)N[C@H](C(=O)NCC(=O)N[C@@H](Cc1ccccc1)C(=O)N[C@@H](CCCNC(=N)N)C(=O)N[C@@H](CCCNC(=N)N)C(=O)N[C@H](CCCNC(=N)N)C(=O)N[C@H](CCCNC(=N)N)C(N)=O)[C@@H](C)O

What follows are binders tested against Keap1 Kelch domain (UniProt Q14145) (assay: other TR-FRET).
Keap1 Kelch domain, sequence (Q14145 whole entry, the tested form may be a part): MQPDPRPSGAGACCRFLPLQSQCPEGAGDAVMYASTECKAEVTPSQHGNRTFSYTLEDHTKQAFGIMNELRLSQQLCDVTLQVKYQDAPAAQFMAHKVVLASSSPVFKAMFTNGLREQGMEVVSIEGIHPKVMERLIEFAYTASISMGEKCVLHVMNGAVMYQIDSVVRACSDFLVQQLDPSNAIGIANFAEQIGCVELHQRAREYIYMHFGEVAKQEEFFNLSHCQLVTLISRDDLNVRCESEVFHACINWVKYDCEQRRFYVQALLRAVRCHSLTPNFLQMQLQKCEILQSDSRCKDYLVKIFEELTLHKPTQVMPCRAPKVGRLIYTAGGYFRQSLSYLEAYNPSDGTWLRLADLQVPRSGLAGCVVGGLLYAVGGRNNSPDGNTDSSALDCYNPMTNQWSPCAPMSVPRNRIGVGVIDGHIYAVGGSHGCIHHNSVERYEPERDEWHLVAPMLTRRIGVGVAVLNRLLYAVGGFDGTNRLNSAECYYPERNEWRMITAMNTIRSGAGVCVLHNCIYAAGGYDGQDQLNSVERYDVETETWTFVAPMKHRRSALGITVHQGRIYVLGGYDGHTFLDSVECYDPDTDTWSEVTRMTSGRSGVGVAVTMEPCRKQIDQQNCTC

Binder	IC50 [nM]
DELEPLTGF[dR][dR]RR (also: polynorbornene brush polymer conjugate, multivalent) [PLP 1-12]	0.17
B1	13.3
B2	8.8
RRDELEPLTGFRR (also: polynorbornene brush polymer conjugate, multivalent) [PLP 1-3]	0.12
